Experimental data: patent US20220195023A1

Experiments:
[1] = biological target: (NANP)6 (Plasmodium falciparum); assay: BLI, target on sensor
[2] = biological target: NANPNVDP (Plasmodium falciparum); assay: BLI, target on sensor
[3] = biological target: … (Plasmodium falciparum); assay: BLI, target on sensor
[4] = biological target: (NPNA)3 (Plasmodium falciparum); assay: BLI, target on sensor
[5] = biological target: (NVDP)3(NANP)2 (Plasmodium falciparum); assay: BLI, target on sensor
[6] = biological target: (NANP)6 (Plasmodium falciparum); assay: SPR, antibody on chip
[7] = biological target: … (Plasmodium falciparum); assay: SPR, antibody on chip
[8] = biological target: (NPNA)3 (Plasmodium falciparum); assay: SPR, antibody on chip
[9] = biological target: (NVDP)3(NANP)2 (Plasmodium falciparum); assay: SPR, antibody on chip

| Binder | Kd [1] [nM] | Kd [2] [nM] | Kd [3] [nM] | Kd [4] [nM] | Kd [5] [nM] | Kd [6] [nM] | Kd [7] [nM] | Kd [8] [nM] | Kd [9] [nM] |
| --- | --- | --- | --- | --- | --- | --- | --- | --- | --- |
| AB-007035 (antibody, V domains shown) VH: QMQLVESGGGVVQPGRSLRLSCTASGFTFSSYAMHWVRQSPGQGLQWVAVISYHSTNKYYEDSVRGRFTISRDNSKNTLYLQMNSLRAEDTAVYYCARDGYSSSFFDFWGQGTLVTVSS VL: DIQMTQSPSTLSASVGDRVAITCRASQSISRWLAWYQQQPGKAPKLLMSGASVLESGVPSRFSGSGSGTEFTLTISSLQPDDFATYYCQHYNSYFVTFGQGTKVEIK | 0.927 | 9.28 | 2.61 | 0.322 | 5.09 | 0.757 | 9750 | 5.73 | 2690 |
| AB-007039 (antibody, V domains shown) VH: QMQLVESGGGVVQPGRSLRLSCTASGFTFSTYAMHWVRQSPGQGLQWVAVISYHSTNKYYEDSVRGRFTISRDNSKNTLYLQMNSLRAEDTAVYYCARDGYSSSFFDFWGQGTLVTVSS VL: DIQMTQSPSTLSASVGDRVAITCRASQSISRWLAWYQQQPGKAPKLLMSGASVLESGVPSRFSGSGSGTEFTLTISSLQPDDFATYYCQHYNSYSVTFGQGTKVEIK | 1.19 | 15.3 | 7.97 | 0.812 | 7.26 | 0.143 | 14700 | 112 | 8250 |
| AB-007043 (antibody, V domains shown) VH: QMQLVESGGGVVQPGRSLRLSCTASGFTFSTYAMHWVRQSPGQGLQWVAVISYHSTNKYYEDSVRGRFTISRDNSKNTLYLQMNSLRAEDTAVYYCARDGYSSSFFDFWGQGTLVTVSS VL: DIQMTQSPSTLSASVGDRVAITCRASQSISRWLAWYQQQPGKAPKLLMSGASVLEDGVPSRFSGSGSGTEFTLTISSLQPDDFATYYCQHYNSYFVTFGQGTKVEIK | 0.293 | 10.4 | 4.87 | 0.00341 | 5.2 | 1.11 | 16300 | 7.51 | 2590 |
| AB-007047 (antibody, V domains shown) VH: QMQLVESGGGVVQPGRSLRLSCTASGFTFSNYAMHWVRQSPGQGLQWVAVISYHSTNKYYEDSVRGRFTISRDNSKNTLYLQMNSLRAEDTAVYYCARDGYSSSFFDFWGQGTLVTVSS VL: DIQMTQSPSTLSASVGDRVAITCRASQSISRWLAWYQQQPGKAPKLLMSGASVLESGVPSRFSGSGSGTEFTLTISSLQPDDFATYYCQHYNSYFVTFGQGTKVEIK | 1.32 | 10 | 5.43 | 0.567 | 8.11 | 0.156 | 9370 | 11.4 | 3680 |
| AB-007040 (antibody, V domains shown) VH: QMQLVESGGGVVQPGRSLRLSCTASGFTFSTYAMHWVRQSPGQGLQWVAVISYHSTNKYYEDSVRGRFTISRDNSKNTLYLQMNSLRAEDTAVYYCARDGYSSSFFDFWGQGTLVTVSS VL: DIQMTQSPSTLSASVGDRVAITCRASQSISRWLAWYQQQPGKAPKLLMSGASVLESGVPSRFSGSGSGTEFTLTISSLQPDDFATYYCQHYNSYYVTFGQGTKVEIK | 0.56 | 9.56 | 4.17 | 0.337 | 4.67 | 0.344 | 3730 | 9.5 | 3110 |
| AB-007049 (antibody, V domains shown) VH: QMQLVESGGGVVQPGRSLRLSCTASGFTFSTYAMHWVRQSPGQGLQWVAVISNHETNKYYEDSVRGRFTISRDNSKNTLYLQMNSLRAEDTAVYYCARDGYSSSFFDFWGQGTLVTVSS VL: DIQMTQSPSTLSASVGDRVAITCRASQSISRWLAWYQQQPGKAPKLLMSGASVLESGVPSRFSGSGSGTEFTLTISSLQPDDFATYYCQHYNSYFVTFGQGTKVEIK | 0.576 | 21.2 | 12.3 | 0.326 | 13 | 0.092 | 2950 | 25.8 | 7140 |
| AB-007038 (antibody, V domains shown) VH: QMQLVESGGGVVQPGRSLRLSCTASGFTFSTYAMHWVRQSPGQGLQWVAVISYHSTNKYYEDSVRGRFTISRDNSKNTLYLQMNSLRAEDTAVYYCARDGYSSSFFDYWGQGTLVTVSS VL: DIQMTQSPSTLSASVGDRVAITCRASQSISRWLAWYQQQPGKAPKLLMSGASVLESGVPSRFSGSGSGTEFTLTISSLQPDDFATYYCQHYNSYFVTFGQGTKVEIK | 1.34 | 10.9 | 3.81 | 0.544 | 5.82 | 0.0281 | 13100 | 8.97 | 3060 |
| AB-007044 (antibody, V domains shown) VH: QMQLVESGGGVVQPGRSLRLSCTASGFTFSTYAMHWVRQSPGQGLQWVAVISYHSTNKYYEESVRGRFTISRDNSKNTLYLQMNSLRAEDTAVYYCARDGYSSSFFDFWGQGTLVTVSS VL: DIQMTQSPSTLSASVGDRVAITCRASQSISRWLAWYQQQPGKAPKLLMSGASVLESGVPSRFSGSGSGTEFTLTISSLQPDDFATYYCQHYNSYFVTFGQGTKVEIK | 0.85 | 8.61 | 3.47 | 0.239 | 5.99 | 0.139 | 12700 | 7.96 | 2240 |
| AB-007051 (antibody, V domains shown) VH: QMQLVESGGGVVQPGRSLRLSCTASGFTFSTYAMHWVRQSPGQGLQWVAVISYHSRNKYYEDSVRGRFTISRDNSKNTLYLQMNSLRAEDTAVYYCARDGYSSSFFDFWGQGTLVTVSS VL: DIQMTQSPSTLSASVGDRVAITCRASQSISRWLAWYQQQPGKAPKLLMSGASVLESGVPSRFSGSGSGTEFTLTISSLQPDDFATYYCQHYNSYFVTFGQGTKVEIK | 1.08 | 6.57 | 3.23 | 0.591 | 4.89 | 0.507 | 8840 | 5.19 | 2490 |
| AB-007041 (antibody, V domains shown) VH: QMQLVESGGGVVQPGRSLRLSCTASGFTFSDYAMHWVRQSPGQGLQWVAVISYHSTNKYYEDSVRGRFTISRDNSKNTLYLQMNSLRAEDTAVYYCARDGYSSSFFDFWGQGTLVTVSS VL: DIQMTQSPSTLSASVGDRVAITCRASQSISRWLAWYQQQPGKAPKLLMSGASVLESGVPSRFSGSGSGTEFTLTISSLQPDDFATYYCQHYNSYFVTFGQGTKVEIK | 0.47 | 12.1 | 5.57 | 0.145 | 6.65 | 0.246 | 2520 | 5.64 | 3930 |
| AB-007036 (antibody, V domains shown) VH: QMQLVESGGGVVQPGRSLRLSCTASGFTFSTYAMHWVRQSPGQGLQWVAVISYDSTNKYYEDSVRGRFTISRDNSKNTLYLQMNSLRAEDTAVYYCARDGYSSSFFDFWGQGTLVTVSS VL: DIQMTQSPSTLSASVGDRVAITCRASQSISRWLAWYQQQPGKAPKLLMSGASVLESGVPSRFSGSGSGTEFTLTISSLQPDDFATYYCQHYNSYFVTFGQGTKVEIK | 0.226 | 29.6 | 16.9 | 0.00382 | 17.4 | 0.0466 | 17500 | 33.5 | 16700 |
| AB-007052 (antibody, V domains shown) VH: QMQLVESGGGVVQPGRSLRLSCTASGFTFSTYAMHWVRQSPGQGLQWVAVISYHSNNKYYEDSVRGRFTISRDNSKNTLYLQMNSLRAEDTAVYYCARDGYSSSFFDFWGQGTLVTVSS VL: DIQMTQSPSTLSASVGDRVAITCRASQSISRWLAWYQQQPGKAPKLLMSGASVLESGVPSRFSGSGSGTEFTLTISSLQPDDFATYYCQHYNSYFVTFGQGTKVEIK | 0.392 | 7.34 | 3.83 | 0.0169 | 6.28 | 0.0442 | 7140 | 6.31 | 2560 |
| AB-007046 (antibody, V domains shown) VH: QMQLVESGGGVVQPGRSLRLSCTASGFTFSTYAMHWVRQSPGQGLQWVAVISYHSTNKYYEDSVRGRFTISRDNSKNTLYLQMNSLRAEDTAVYYCARDGYSSSFFDFWGQGTLVTVSS VL: DIQMTQSPSTLSASVGDRVAITCRASQSISRWLAWYQQQPGKAPKLLMSGASVLESGVPSRFSGSGSGTEFTLTISSLQPDDFATYYCQHYYSYFVTFGQGTKVEIK | 2.58 | 11.1 | 9.15 | 1.57 | 11.6 | 1.27 | 11600 | 10.3 | 2810 |
| AB-007037 (antibody, V domains shown) VH: QMQLVESGGGVVQPGRSLRLSCTASGFTFSTYAMHWVRQSPGQGLQWVAVISYHSTNKYYEDSVKGRFTISRDNSKNTLYLQMNSLRAEDTAVYYCARDGYSSSFFDFWGQGTLVTVSS VL: DIQMTQSPSTLSASVGDRVAITCRASQSISRWLAWYQQQPGKAPKLLMSGASVLESGVPSRFSGSGSGTEFTLTISSLQPDDFATYYCQHYNSYFVTFGQGTKVEIK | 0.384 | 8.41 | 2.47 | 0.0035 | 4.44 | 1.73 | 2240 | 7.14 | 2690 |
| AB-007042 (antibody, V domains shown) VH: QMQLVESGGGVVQPGRSLRLSCTASGFTFSTYAMHWVRQSPGQGLQWVAVISYHSTNKYYEDSVRGRFTISRDNSKNTLYLQMNSLRAEDTAVYYCARDGYSSSFFDFWGQGTLVTVSS VL: DIQMTQSPSTLSASVGDRVAITCRASQDISRWLAWYQQQPGKAPKLLMSGASVLESGVPSRFSGSGSGTEFTLTISSLQPDDFATYYCQHYNSYFVTFGQGTKVEIK | 0.0276 | 8.56 | 2.99 | 0.00314 | 3.9 | 0.998 | 11700 | 7.04 | 2310 |
